The results in this text go back to patent US20170333517.

In the data set the target is T1, N-acetyl-proline-glycine-proline.
T1 chain: PGP

B1: recombinant human angiotensin converting enzyme (protein)
chain: LDPGLQPGNFSADEAGAQLFAQSYNSSAEQVLFQSVAASWAHDTNITAENARRQEEAALLSQEFAEAWGQKAKELYEPIWQNFTDPQLRRIIGAVRTLGSANLPLAKRQQYNALLSNMSRIYSTAKVCLPNKTATCWSLDPDLTNILASSRSYAMLLFAWEGWHNAAGIPLKPLYEDFTALSNEAYKQDGFTDTGAYWRSWYNSPTFEDDLEHLYQQLEPLYLNLHAFVRRALHRRYGDRYINLRGPIPAHLLGDMWAQSWENIYDMVVPFPDKPNLDVTSTMLQQGWNATHMFRVAEEFFTSLELSPMPPEFWEGSMLEKPADGREVVCHASAWDFYNRKDFRIKQCTRVTMDQLSTVHHEMGHIQYYLQYKDLPVSLRRGANPGFHEAIGDVLALSVSTPEHLHKIGLLDRVTNDTESDINYLLKMALEKIAFLPFGYLVDQWRWGVFSGRTPPSRYNFDWWYLRTKYQGICPPVTRNETHFDAGAKFHVPNVTPYIRYFVSFVLQFQFHEALCKEAGYEGPLHQCDIYRSTKAGAKLRKVLQAGSSRPWQEVLKDMVGLDALDAQPLLKYFQPVTQWLQEQNQQNGEVLGWPEYQWHPPLPDNYPEGIDLVTDEAEASKFVEEYDRTSQVVWNEYAEANWNYNTNITTETSKILLQKNMQIANHTLKYGTQARKFDVNQLQNTTIKRIIKKVQDLERAALPAQELEEYNKILLDMETTYSVATVCHPNGSCLQLEPDLTNVMATSRKYEDLLWAWEGWRDKAGRAILQFYPKYVELINQAARLNGYVDAGDSWRSMYETPSLEQDLERLFQELQPLYLNLHAYVRRALHRHYGAQHINLEGPIPAHLLGNMWAQTWSNIYDLVVPFPSAPSMDTTEAMLKQGWTPRRMFKEADDFFTSLGLLPVPPEFWNKSMLEKPTDGREVVCHASAWDFYNGKDFRIKQCTTVNLEDLVVAHHEMGHIQYFMQYKDLPVALREGANPGFHEAIGDVLALSVSTPKHLHSLNLLSSEGGSDEHDINFLMKMALDKIAFIPFSYLVDQWRWRVFDGSITKENYNQEWWSLRLKYQGLCPPVPRTQGDFDPGAKFHIPSSVPYIRYFVSFIIQFQFHEALCQAAGHTGPLHKCDIYQSKEAGQRLATAMKLGFSRPWPEAMQLITGQPNMSASAMLSYFKPLLDWLRTENELHGEKLGWPQYNWTPNSARSEGPLPDSGRVSFLGLDLDAQQARVGQWL
B1: the “degradation of Ac-PGP (residual Ac-PGP by ESI-LC-MS/MS after 24 h; 1 µg/ml enzyme, 100 µg/ml Ac-PGP)” value is given as “ACE degraded 70% of Ac-PGP”.

B2: recombinant human aminopeptidase N (protein)
chain: KAWNRYRLPNTLKPDSYRVTLRPYLTPNDRGLYVFKGSSTVRFTCKEATDVIIIHSKKLNYTLSQGHRVVLRGVGGSQPPDIDKTELVEPTEYLVVHLKGSLVKDSQYEMDSEFEGELADDLAGFYRSEYMEGNVRKVVATTQMQAADARKSFPCFDEPAMKAEFNITLIHPKDLTALSNMLPKGPSTPLPEDPNWNVTEFHTTPKMSTYLLAFIVSEFDYVEKQASNGVLIRIWARPSAIAAGHGDYALNVTGPILNFFAGHYDTPYPLPKSDQIGLPDFNAGAMENWGLVTYRENSLLFDPLSSSSSNKERVVTVIAHELAHQWFGNLVTIEWWNDLWLNEGFASYVEYLGADYAEPTWNLKDLMVLNDVYRVMAVDALASSHPLSTPASEINTPAQISELFDAISYSKGASVLRMLSSFLSEDVFKQGLASYLHTFAYQNTIYLNLWDHLQEAVNNRSIQLPTTVRDIMNRWTLQMGFPVITVDTSTGTLSQEHFLLDPDSNVTRPSEFNYVWIVPITSIRDGRQQQDYWLIDVRAQNDLFSTSGNEWVLLNLNVTGYYRVNYDEENWRKIQTQLQRDHSAIPVINRAQIINDAFNLASAHKVPVTLALNNTLFLIEERQYMPWEAALSSLSYFKLMFDRSEVYGPMKNYLKKQVTPLFIHFRNNTNNWREIPENLMDQYSEVNAISTACSNGVPECEEMVSGLFKQWMENPNNNPIHPNLRSTVYCNAIAQGGEEEWDFAWEQFRNATLVNEADKLRAALACSKELWILNRYLSYTLNPDLIRKQDATSTIISITNNVIGQGLVWDFVQSNWKKLFNDYGGGSFSFSNLIQAVTRRFSTEYELQQLEQFKKDNEETGFGSGTRALEQALEKTKANIKWVKENKEVVLQWFTENSK
Take B2: the “degradation of Ac-PGP (residual Ac-PGP by ESI-LC-MS/MS after 24 h; 1 µg/ml enzyme, 100 µg/ml Ac-PGP)” value is recorded as “APN had no activity”.
